Tested on: plasma proteins
Experiment: Plasma proteins modulated between baseline and day 28 in responders (CR, VGPR, PR; n = 19), Example 6 (Table 13)
Format: in vivo, human
Details: plasma protein (OLINK NPX); responders (CR, VGPR, PR; n = 19); itacitinib 200 mg or 300 mg QD with corticosteroids; day 28 vs baseline
Outline: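 Plasma at baseline/screening and day 28 profiled for >1000 proteins by OLINK proximity extension assay, reported as NPX (log2). Steroid-naive and steroid-refractory patients pooled. Paired and unpaired t tests, ANOVA and Pearson correlation applied; significance at P<0.05.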

| Molecule | Fold Change, Decreased Expression from Baseline to Day 28 | Fold Change, Increased Expression from Baseline to Day 28 |
| --- | --- | --- |
| PTPRJ (protein, UniProt Q12913 36-1337, looked up) Receptor-type …: AGGTPSPIPDPSVATVATGENGITQISSTAESFHKQNGTGTPQVETNTSEDGESSGANDSLRTPEQGSNGTDGASQKTPSSTGPSPVFDIKAVSISPTNVILTWKSNDTAASEYKYVVKHKMENEKTITVVHQPWCNITGLRPATSYVFSITPGIGNETWGDPRVIKVITEPIPVSDLRVALTGVRKAALSWSNGNGTASCRVLLESIGSHEELTQDSRLQVNISGLKPGVQYNINPYLLQSNKTKGDPLGTEGGLDASNTERSRAGSPTAPVHDESLVGPVDPSSGQQSRDTEVLLVGLEPGTRYNATVYSQAANGTEGQPQAIEFRTNAIQVFDVTAVNISATSLTLIWKVSDNESSSNYTYKIHVAGETDSSNLNVSEPRAVIPGLRSSTFYNITVCPVLGDIEGTPGFLQVHTPPVPVSDFRVTVVSTTEIGLAWSSHDAESFQMHITQEGAGNSRVEITTNQSIIIGGLFPGTKYCFEIVPKGPNGTEGASRTVCNRTVPSAVFDIHVVYVTTTEMWLDWKSPDGASEYVYHLVIESKHGSNHTSTYDKAITLQGLIPGTLYNITISPEVDHVWGDPNSTAQYTRPSNVSNIDVSTNTTAATLSWQNFDDASPTYSYCLLIEKAGNSSNATQVVTDIGITDATVTELIPGSSYTVEIFAQVGDGIKSLEPGRKSFCTDPASMASFDCEVVPKEPALVLKWTCPPGANAGFELEVSSGAWNNATHLESCSSENGTEYRTEVTYLNFSTSYNISITTVSCGKMAAPTRNTCTTGITDPPPPDGSPNITSVSHNSVKVKFSGFEASHGPIKAYAVILTTGEAGHPSADVLKYTYEDFKKGASDTYVTYLIRTEEKGRSQSLSEVLKYEIDVGNESTTLGYYNGKLEPLGSYRACVAGFTNITFHPQNKGLIDGAESYVSFSRYSDAVSLPQDPGVICGAVFGCIFGALVIVTVGGFIFWRKKRKDAKNNEVSFSQIKPKKSKLIRVENFEAYFKKQQADSNCGFAEEYEDLKLVGISQPKYAAELAENRGKNRYNNVLPYDISRVKLSVQTHSTDDYINANYMPGYHSKKDFIATQGPLPNTLKDFWRMVWEKNVYAIIMLTKCVEQGRTKCEEYWPSKQAQDYGDITVAMTSEIVLPEWTIRDFTVKNIQTSESHPLRQFHFTSWPDHGVPDTTDLLINFRYLVRDYMKQSPPESPILVHCSAGVGRTGTFIAIDRLIYQIENENTVDVYGIVYDLRMHRPLMVQTEDQYVFLNQCVLDIVRSQKDSKVDLIYQNTTAMTIYENLAPVTTFGKTNGYIA | −1.7421 | – |
| CES2 (protein, UniProt O00748 27-559, looked up) Cocaine esterase: QDSASPIRTTHTGQVLGSLVHVKGANAGVQTFLGIPFAKPPLGPLRFAPPEPPESWSGVRDGTTHPAMCLQDLTAVESEFLSQFNMTFPSDSMSEDCLYLSIYTPAHSHEGSNLPVMVWIHGGALVFGMASLYDGSMLAALENVVVVIIQYRLGVLGFFSTGDKHATGNWGYLDQVAALRWVQQNIAHFGGNPDRVTIFGESAGGTSVSSLVVSPISQGLFHGAIMESGVALLPGLIASSADVISTVVANLSACDQVDSEALVGCLRGKSKEEILAINKPFKMIPGVVDGVFLPRHPQELLASADFQPVPSIVGVNNNEFGWLIPKVMRIYDTQKEMDREASQAALQKMLTLLMLPPTFGDLLREEYIGDNGDPQTLQAQFQEMMADSMFVIPALQVAHFQCSRAPVYFYEFQHQPSWLKNIRPPHMKADHGDELPFVFRSFFGGNYIKFTEEEEQLSRKMMKYWANFARNGNPNGEGLPHWPLFDQEEQYLQLNLQPAVGRALKAHRLQFWKKALPQKIQELEEPEERHTEL | – | 1.4212 |
| CNDP1 (protein, UniProt Q96KN2 27-507, looked up) Beta-Ala-His dipeptidase: SPSPPPALLEKVFQYIDLHQDEFVQTLKEWVAIESDSVQPVPRFRQELFRMMAVAADTLQRLGARVASVDMGPQQLPDGQSLPIPPVILAELGSDPTKGTVCFYGHLDVQPADRGDGWLTDPYVLTEVDGKLYGRGATDNKGPVLAWINAVSAFRALEQDLPVNIKFIIEGMEEAGSVALEELVEKEKDRFFSGVDYIVISDNLWISQRKPAITYGTRGNSYFMVEVKCRDQDFHSGTFGGILHEPMADLVALLGSLVDSSGHILVPGIYDEVVPLTEEEINTYKAIHLDLEEYRNSSRVEKFLFDTKEEILMHLWRYPSLSIHGIEGAFDEPGTKTVIPGRVIGKFSIRLVPHMNVSAVEKQVTRHLEDVFSKRNSSNKMVVSMTLGLHPWIANIDDTQYLAAKRAIRTVFGTEPDMIRDGSTIPIAKMFQEIVHKSVVLIPLGAVDDGEHSQNEKINRWNYIEGTKLFAAFFLEMAQLH | – | 1.3856 |

Reference: patent US12099068B2, “Biomarkers for graft-versus-host disease” (Incyte Corporation, priority 2018, dated 2024)
